Source: patent US11667697
Numbering of substitutions follows the chain as printed.

B1: MPXV-26 (antibody, V domains shown)
VH: QVQLVQSGGGLIQPGGSLRLSCVVSGFNVATNYMSWVRQAPGKGLEWVSVIYSGGSTYYADSVKGRFTISRDNSKNTVFLQMNSLRPEDTAAYYCAKGGGLGLDYWGQGTLVTVSS
VL: QSALTQPPSASGSPGQSVTITCTGSSSDVGGYNYVSWYQQHPGKAPKVVIYEVNKRPSGVPHRFSGSKSGNTASLTVSGLQAEDEADYYCSSYAGTETVAFGGGTKLTVL
B2: VACV-33 (antibody, V domains shown)
VH: QLQLQESGPGLVKPSETLSLTCTVSGGSISSGGYYWGWIRQPPGKGLEWIASIYYSGSTYYNPSLKSRVTISVDTSKTQFSLKLSSVTAADTAVYYCARQSSSTGGFHYWGQGTLVTVSS
VL: QSVLTQPPSVSGAPGQRVTISCTGSSSNIGAGYDVHWYQHLPGTAPKLLIYGNSNRPSGVPDRFSGSKSGTSASLAITGLQAEDEANYYCQSYDSSLSGREVFGGGTQLTVL
B3: MPXV-83 (antibody, V domains shown)
VH: QVQLVESGGGVVQPGRSLRLSCAASGFTFSSYSMHWVRQAPGKGLEWVAVISFDGRSNYYADSVRGRFTISRDNSKKTMYLQMNSLRLADTAVYYCARGGIGAPDPRNGLEVWGRGAPVTLSS
VL: DIQMIQSPSSLSASVGDRVTISCQATQDISNSVNWYQQKPGKAPKLLIYDASTLETGVPSRFSGGGSGTHFTFTISSLQPEDIATYYCQQFHSLPPTFGQGPKGISK
B4: MPXV-39 (antibody, V domains shown)
VH: QVQLQQWGAGLLKPSETLSLTCAIYGGSLSGQYWSWIRQPPGRGLEWIGEIHHKGRTNYNPSLKSRVTISIDTSQRQFSLRLTSVSAADTAVYYCASGNYRLGQGTLVTF
VL: DVVLTQSPLTLPVTLGQPASISCRSSQSLVYSDGDTYLNWFQQRPGQAPRRLIYKVSKRDFGVPDRFSGSGSGTDFTLRISRVEAEDVGVYYCMQGTHWPRTFGQGTQVDIK
B5: VACV-66 (antibody, V domains shown)
VH: QLQLQESGPGLVKPSETLSLTCTVSGDSISSNNYYWGWIRQPPGKGLEWIGSIYYSGSTYYNPSLKSRVTISVDTSKNQFSLKLSSVTAADTAVYYCARHRRVLLWFGEFQLWGQGTLVTVSS
VL: QSALTQPPSVSGAPGQRVTISCTGSSSNIGAGYDVHWYQQLPGTAPKLLIYGNINRPSGVPDRFSGSKSGTSASLAITGLQAEDEADYYCQSYDSSLSGALFGGGTQLTVL
B6: VACV-159 (antibody, V domains shown)
VH: QLQLQESGPGLVKPSETLSLTCTVSGGSISSSSYYWGWIRQPPGKGLEWIGSIYYRGSTYYNPSLKSRITISVDTSKNQFSLKLRSVTAADTAVYYCARHLRVLLWFGELLEWGQGTTVTVSS
VL: B5 VL with G32D, I54S, Y93H, A100Y, L101V, G104T, Q107K, L108V
B7: VACV-304 (antibody, V domains shown)
VH: EVQLVESGGGLVQPGGSLRLSCVVSGFTFSNYWMSWVRQAPGKGLEWVANIKQDGSKKYYVDSVTGRFTISRDNAKNSLYLQMNSLRAEDTAVYYCATLNLELAVDAISEALKWGQGTLVTVSS
VL: SYELTQPPSVSVSPGQTARITCSGDALPKQFAYWYQQKPGQAPVVMIYKDSERPSGIPERFSGSSSGTTVTLTISGVQAEDEADYYCQSVDNSGTYEVFGGGTQLTVL
B8: VACV-136 (antibody, V domains shown)
V domain 1: QVTLKESGPVLVNPTETLTLTCTVSGFSLSNARMRVSWIRQPPGKALEWLAHIFSNDEKSYSTSLKSRLTISKDTSKSQVVLTMTNMDPVDTASYYCARMRGEYNSYYFDSWGQGTLVTVS
V domain 2: SYELTQPPSVSVSPGQTARITCSGDALPNQYAYWYQQKPGQAPVLVIYKDSERPSGIPERFSGSSSGTTVTLTISGVQAEDEADYYCQSADSSGTSVVFGGGTQVTV
B9: VACV-117 (antibody, V domains shown)
VH: QVQLVQSGAEVKKPGASVKVSCKASGYTFTSYDINWVRQATGQGLEWLGWMNPNSGNTKSAQKVKGRVTMTRDTSISTAYMELSSLRSEDTAVYYCARTPFDDIGYYYWGQGTLVTVS
VL: DIVMTQSPLSLSVTPGEPASISCRSSQSLLHSNGYNYLDWYLQKPGQSPQLLIYLGSNRASGVPDRFIGSGSGTDFTLKISIVEAEDVGVYYCMQALQTPGAFGPGTKVDIK
B10: MPXV-96 (antibody, V domains shown)
VH: QVQLQQWGAGLLISSETLSLTCGVYGGSFSGYYWTWIRQPPGKGLEWIGEINYVGSTNYNPSLKSRVTMSVDTSKNHFSLSLSSVTAADTAVYYCARGLRGNSVCFDWGPGTLV
VL: ELVMTQSPATLSVSPGERASLSCRASQSVSSNLAWYQQKPGQAPRLLIYGASTRATGLPARFSGSGSGTEFTLTISSLQSEDFAIYYCQQYNNWPRTFGQGTKVDI
B11: VACV-8 (antibody, V domains shown)
VH: QVQLQQWGAGLLKPSETLSLTCAGYGGSFSGYFWSWIRQPPGKGLEWIGEINHSGSTDYNPSLKSRVTISLDTSKTQFSLKLSSVTAADTAVYYCARVMTGITNYYYYYGMDVWGQGTTVTF
VL: DIQLTQSPSFLSASVGDRVTITCRASQDISSYLAWYQQKPGKAPKLLIYAASTLQSGVPSRFSGSESGTEFTLTISSLQPENFATYYCQHLNSYPRGYTFGQGTKVDIK
B12: MPXV-61 (antibody, V domains shown)
V domain 1: QVQLVQSGAEVKKPGSSVKVSCKASGETFSRYAFSWVRLAPGQGLEWLGRIIPFIDIPNYAQKFQGRVTITADKSTSTAYMELSSLRSEDTAVYYCASSLPSTYYFGSGNYPWGNWLDPWGQGTLVTVSS
V domain 2: QSVVTQPPSVSAAPGQNVTISCSGSSSNIGNNYVSWYHQLPGTAPKLLIYDNDKRPSGIPDRFSGSKSGTSATLGITGLQTGDEADYYCGTWDSSLSEVVFGGGTQVTVL
B13: MPXV-27 (antibody, V domains shown)
VH: QVQLQQWGAGLLKPSETLSLTCDVYGGSFSGYYWSWIRQPPGKGLEWIGEINHSGSTTYTPSLRSRVTISVDTSKNQFSLKLSSVTAADTAVYYCARVLSGWLPFPNYYYYMDVWGKGTTVT
VL: DIQMTQSPSSLPASVGDRVTITCRASQDIRNNLGWYQQKPGKAPERLIYGTSNLQSGVPSRFSGSGSGTEFTLTISSLQPEDFATYYCLQHNSYPPTFGRGTKVEIK
B14: VACV-303 (antibody, V domains shown)
VH: EVQLLESGGGLVQPGGSLRLSCAASGFTFSSYAMSWVRQAPGKGLEWVSAISGTGGNTYYADSVKGRFTISRDKSKNTLYLQMHSLRAEDTAVYYCATSLIWWLQSDYWGQGTLVTVSS
VL: DIQMTQSPSSLSASVGDRVTITCRASQSIASYLIWYQQKPGNAPKLLIYAASSLQSGVPSRFSGSGSGTDFTLTISSLQPEDFATYYCQQSYSTPQTFGQGTKVDIK
B15: VACV-154 (antibody, V domains shown)
VH: EVQLLESGGGLVQPGESLRLSCAASGFTLRNYAMSWVRQTPGKGLEWVSAISGSGGSTYYADSVKGRFTISRDTSKNTLYVQMNSLRAEDTAVYYCAKIRLDSSGYSGAFDIWGQGTRVTVSS
VL: SYELTQPPSVSVSPGQTARITCSGDALPKQYASWYQQKPGQAPVLVIYKDSERPSGIPERFSGSSSGTTVTLTISGVQAEDEADYYCQSADSSGTYPVVFGGGTQLTVL
B16: VACV-300 (antibody, V domains shown)
V domain 1: QVQLVQSGAEVKKPGSSVKVSCKASGGTFSSYAISWVRQAPGQGLEWMGGIIPIFGTANYAQKFQGRVTITADESTGTAYMELTSLRSEDTAIYYCARASEQWLASINWFDPWGQGTLVTVSS
V domain 2: QSALTQPASVSGSPGQSITISCTGTSSDVGSYNLVSWYQQHPGKAPKLMIYEVSKRPSGVSNRFSASKSGNTASLTISGLQAEDEADYYCCSYAGSSTLVFGGGTQVTVL
B17: VACV-128 (antibody, V domains shown)
VH: EVQLVQSGAEVKKPGATVKISCKVSGYTFTDYYMHWVQQAPGKGLKWMGLLDPLDGETIYSEKFQGKVTITADTSTDTAYMELSSLRSEDTAVYYCARELTGYLNYWGQGTLVTVSS
VL: DIQMTQSPSSLSASVGDRVTITCRASPGICNYLAWYQHKPGKVPKLLIYAASTLQSGVPSRFTGVGSGTNFTLTINNLPPENVATYYCQKYNSAPHTFGQGTKVDIK

target: CPXV ortholog of L1 (cowpox virus); assay: lysate ELISA

Row | Binder | EC50 [µg/mL]
1 | B1 | 0.05
2 | B2 | 0.06
3 | B3 | 0.03

target: MPXV ortholog of A33 (monkeypox virus); assay: lysate ELISA

Row | Binder | EC50 [µg/mL]
4 | B4 | > 47

target: MPXV ortholog of D8 (monkeypox virus); assay: lysate ELISA

Row | Binder | EC50 [µg/mL]
5 | B5 | > 0.3
6 | B6 | > 14
7 | B7 | 0.1
8 | B8 | 0.04
9 | B9 | > 26
10 | B10 | 0.001
11 | B11 | 0.06
12 | B12 | 0.004
13 | B13 | 0.02

target: MPXV ortholog of the A27 VACV protein (monkeypox virus); assay: lysate ELISA

Row | Binder | EC50 [µg/mL]
14 | B14 | 0.004
15 | B15 | 0.02
16 | B16 | > 0.68

target: CPXV ortholog of D8 (cowpox virus); assay: lysate ELISA

Row | Binder | EC50 [µg/mL]
17 | B6 | > 28
18 | B7 | 0.05
19 | B8 | 0.05
20 | B9 | 0.01
21 | B10 | 0.003
22 | B17 | 0.25
23 | B11 | 0.1
24 | B12 | 0.009
25 | B13 | 0.02

target: CPXV ortholog of A27 (cowpox virus); assay: lysate ELISA

Row | Binder | EC50 [µg/mL]
26 | B14 | 0.004
27 | B15 | 0.02
28 | B16 | 0.06

target: MPXV ortholog of L1 (monkeypox virus); assay: cell-based or functional assay

Row | Binder | PRNT Emax, MPXV MV [%] | PRNT Emax, MPXV MV+C' [%] | PRNT IC50, MPXV MV [µg/mL] | PRNT IC50, MPXV MV+C' [µg/mL]
29 | B1 | 96 | 97 | 3 | 6.2
30 | B2 | 50 |  | 70 | 
31 | B3 |  | 67 |  | 12.5

target: CPXV ortholog of L1 (cowpox virus); assay: cell-based or functional assay

Row | Binder | PRNT Emax, CPXV MV [%] | PRNT Emax, CPXV MV+C' [%] | PRNT IC50, CPXV MV [µg/mL] | PRNT IC50, CPXV MV+C' [µg/mL]
32 | B1 | 99 | 93 | 0.07 | 0.2
33 | B2 | 74 | 75 | 0.5 | 0.2
34 | B3 | 69 | 78 | 0.2 | 0.1

target: MPXV ortholog of A33 (monkeypox virus); assay: cell-based or functional assay

Row | Binder | PRNT Emax, MPXV EV+C' [%] | PRNT IC50, MPXV EV+C' [µg/mL]
35 | B4 | 56 | 100

target: MPXV ortholog of the A27 VACV protein (monkeypox virus); assay: cell-based or functional assay

Row | Binder | PRNT Emax, MPXV MV [%] | PRNT Emax, MPXV MV+C' [%] | PRNT IC50, MPXV MV [µg/mL] | PRNT IC50, MPXV MV+C' [µg/mL]
36 | B14 | 51 | 64 | 25 | 15
37 | B15 | 66 | 69 | 15 | 14

target: CPXV ortholog of D8 (cowpox virus); assay: cell-based or functional assay

Row | Binder | PRNT Emax, CPXV MV+C' [%] | PRNT IC50, CPXV MV+C' [µg/mL]
38 | B7 | 79 | 0.1
39 | B8 | 75 | 0.2
40 | B17 | 71 | 0.3
41 | B11 | 58 | 2
42 | B13 | 75 | 0.08

target: VARV ortholog of L1 (variola virus); assay: purified antigen ELISA

Row | Binder | EC50 [µg/mL]
43 | B1 | 0.02
44 | B2 | 0.02
45 | B3 | 0.065

target: MPXV ortholog of the A27 VACV protein (monkeypox virus); assay: purified antigen ELISA

Row | Binder | EC50 [µg/mL]
46 | B14 | 0.02
47 | B15 | 0.06
48 | B16 | 0.14

target: VARV ortholog of A27 (variola virus); assay: purified antigen ELISA

Row | Binder | EC50 [µg/mL]
49 | B14 | 0.16
50 | B15 | 0.3
51 | B16 | 0.79
